Assay results reported in the supplement of paper PMC7877785.
± gives the uncertainty stated by the source.

Test: self-splicing fitness, log relative to wild type (ln ratio); higher = more splicing; Tetrahymena group I intron in knt gene, E. coli kanamycin selection, DiMSum; sequences stand for … in CUCUCU…GGAGGGAAAAGUUAUCAGGCAUGCACCUGGUAGCUAGUCUUUAAACCAAUAGAUUGCAUCGGUUUAAAAGGCAAGACCGUCAAAUUGCGGGAAAGGGGUCAACAGCCGUUCAGUACCAAGUCUCAGGGGAAACUUUGAGAUGGCCUUGCAAAGGGUAUGGUAAUAAGCUGACGGACAUGGUCCUAACCACGCAGCCAAGUCCUAAGUCAACAGAUCUUCUGUUGAUAUGGAUGCAGUUCACAGACUAAAUGUCGGUCGGGGAAGAUGUAUUCUUCUCAUAAGAUAUAGUCGGACCUCUCCUUAAUGGGAGCUAGCGGAUGAAGUGAUGCAACACUGGAGCCGCUGGGAACUAAUUUGUAUGCGAAAGUAUAUUGAUUAGUUUUGGAGUACUCGUGGUCG
In short: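 Six replicate transformations of E. coli BL21(DE3) with a pET-22b(+) library were grown overnight at 37°C or 30°C. The library randomised all eight P1ex-region intron nucleotides, the intron lying in the knt kanamycin-resistance gene, and plates were LB agar with or without 25 μg/mL kanamycin plus 100 μg/mL carbenicillin, 50 μM IPTG and 0.2% rhamnose. Pooled colonies were amplicon-sequenced on an Illumina HiSeq 2500, and fitness is the DiMSum error-weighted combination of wild-type-normalised replicate fold changes, kanamycin versus none.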

Row | Sequence | self-splicing fitness (ln) (30 °C) | self-splicing fitness (ln) (37 °C)
1 | GUCGAGCAAUAUUACGGGCU | -2.06 ± 0.23 | -1.53 ± 0.28
2 | GUCGAGCAAUAUUACGGGGA | -2.91 ± 0.3 | -1.39 ± 0.24
3 | GUCGAGCAAUAUUACGGGUC | -2.68 ± 0.39 | 
4 | GUCGAGCAAUAUUACGGUGU | -1.98 ± 0.087 | -1.14 ± 0.11
5 | GUCGAGCAAUAUUACGUACA | -1.02 ± 0.15 | -0.719 ± 0.17
6 | GUCGAGCAAUAUUACGUAGG | -3.66 ± 0.18 | -2.08 ± 0.16
7 | GUCGAGCAAUAUUACGUAUG | -3.13 ± 0.32 | -0.147 ± 0.21
8 | GUCGAGCAAUAUUACGUAUU | -1.52 ± 0.29 | -0.948 ± 0.23
9 | GUCGAGCAAUAUUACGUGAG | -0.54 ± 0.076 | -0.266 ± 0.096
10 | GUCUAGCAAUAUUACGAAUA | -1.87 ± 0.17 | -0.494 ± 0.14
11 | GUCUAGCAAUAUUACGAGAC | -3.7 ± 0.24 | -2.34 ± 0.3
12 | GUCUAGCAAUAUUACGAUCU | -1.57 ± 0.12 | -0.315 ± 0.14
13 | GUCUAGCAAUAUUACGCUAC | -2.41 ± 0.47 | -2.57 ± 0.33
14 | GUCUAGCAAUAUUACGGACG | -0.561 ± 0.15 | -0.711 ± 0.2
15 | GUCUAGCAAUAUUACGGAUA | -1.26 ± 0.099 | -0.0363 ± 0.11
16 | GUCUAGCAAUAUUACGGCUA |  | -2.64 ± 0.33
17 | GUCUAGCAAUAUUACGGGAG | -1.87 ± 0.17 | -0.423 ± 0.11
18 | GUCUAGCAAUAUUACGGGUC | -2.14 ± 0.2 | -1.67 ± 0.17
19 | GUCUAGCAAUAUUACGGGUU | -1.92 ± 0.082 | -0.234 ± 0.083
20 | GUCUAGCAAUAUUACGGUCA | -0.592 ± 0.11 | -0.44 ± 0.12
21 | GUCUAGCAAUAUUACGGUCC | -2.44 ± 0.15 | -1.18 ± 0.13
22 | GUCUAGCAAUAUUACGGUCU | -2.19 ± 0.17 | -0.272 ± 0.16

Row | Sequence | self-splicing fitness (ln) (30 °C) | self-splicing fitness (ln) (37 °C)
23 | GUCUAGCAAUAUUACGUACG | -1.29 ± 0.12 | -0.709 ± 0.12
24 | GUCUAGCAAUAUUACGUAUC | -0.834 ± 0.08 | 0.353 ± 0.11
25 | GUCUAGCAAUAUUACGUCAA | -1.4 ± 0.067 | -0.997 ± 0.085
26 | GUCUAGCAAUAUUACGUCGU | -0.819 ± 0.096 | 0.377 ± 0.092
27 | GUCUAGCAAUAUUACGUGAC | -3.73 ± 0.33 | -0.257 ± 0.2
28 | GUCUAGCAAUAUUACGUGAG | -0.175 ± 0.075 | 0.0626 ± 0.093
29 | GUCUAGCAAUAUUACGUUAC | -0.99 ± 0.099 | -0.771 ± 0.096
30 | GUCUAGCAAUAUUACGUUCG | -0.604 ± 0.18 | -0.859 ± 0.17
31 | GUGAAGCAAUAUUACGAAUC | -0.696 ± 0.14 | -0.964 ± 0.22
32 | GUGAAGCAAUAUUACGACAU | 0.0507 ± 0.012 | 0.246 ± 0.032
33 | GUGAAGCAAUAUUACGAGAA | -1.97 ± 0.13 | -0.33 ± 0.13
34 | GUGAAGCAAUAUUACGAGCC |  | -2.76 ± 0.48
35 | GUGAAGCAAUAUUACGAGGU | -1.83 ± 0.29 | -1.36 ± 0.26
36 | GUGAAGCAAUAUUACGAGUA | -1.84 ± 0.13 | -1.47 ± 0.16
37 | GUGAAGCAAUAUUACGAGUC | -2.58 ± 0.17 | -0.63 ± 0.23
38 | GUGAAGCAAUAUUACGAUCA | -0.337 ± 0.11 | 0.465 ± 0.13
39 | GUGAAGCAAUAUUACGAUGU | -0.316 ± 0.064 | -0.0235 ± 0.094
40 | GUGAAGCAAUAUUACGAUUU | -0.586 ± 0.051 | 0.316 ± 0.091
41 | GUGAAGCAAUAUUACGCGUG | -0.812 ± 0.057 | -0.134 ± 0.061
42 | GUGAAGCAAUAUUACGCUCA | -1.35 ± 0.12 | -1.62 ± 0.17
43 | GUGAAGCAAUAUUACGCUGG | -1.42 ± 0.12 | -0.76 ± 0.13
